Measured values from patent CN109627331A.
Where “and” joins values, the source holds several entries; their conditions need not be identical. Identical values can stand only once.

Key:
[1] = target: 犬细小病毒 (canine parvovirus, whole virus) (犬细小病毒 (canine parvovirus)); experiment: cell-based or functional assay
[2] = target: 犬细小病毒VLPs (canine parvovirus virus-like particles) (犬细小病毒 (canine parvovirus)); experiment: non-competitive indirect ELISA, CPV-VLPs coated at 1, 0.5, 0.25, 0.125 μg/ml; mean of 6 Ka values
[3] = target: 犬细小病毒VLPs (canine parvovirus virus-like particles) (犬细小病毒 (canine parvovirus)); experiment: indirect ELISA, VLPs coated at 1μg/ml, hybridoma supernatant

B1: 鼠源CPV基因工程抗体 (recombinant mouse anti-canine parvovirus antibody expressed in HEK-293 cells) (antibody, V domains shown)
VH: QVQLKQSGPGLVQPSQSLSITCTVSGFSLTSYGVHWVRHSPGKGLEWLGVIWSGGSTDYNAAFISRLSITKDNSKTQVFFKMNSLQANDTAIYYCARNSFYGSTPGSYAMDYWGQGTSVTVSS
VL: QIVLTQSPASLSMAIGEKVTIRCIASTDIDDDMNWYQQKPGKPPNLLISEGNTLRPGVPSRFSSSGYGTDFVFTIQNMLSEDVADYYCLQSDNLPLTFGAGTKLELK
- 中和效价 [1]: 4 titre (1:x) and 8 titre (1:x)
- 血凝抑制效价 [1]: 8 titre (1:x)

B2: CPV单克隆抗体 (mouse anti-canine parvovirus monoclonal antibody from hybridoma supernatant) (antibody, V domains shown)
VH: B1 VH
VL: B1 VL
- Ka [2]: 1.02e+11 M⁻¹
- OD450 [3]: 1.07 OD450
